Data as given in patent publication US7067277B1, “Chimeric G proteins and uses thereof” (H. Lundbeck A/S, priority 1999, dated 2006).

How the values were obtained:
Assay in all cases: Calcium mobilization (FLIPR, Fluo-3) in transfected COS-7 cells
Type in all cases: cell-based
h 5HT1B = h 5HT1B (Homo sapiens, UniProt P28222); details: h 5HT1B + chimera in COS-7; agonist 5HT, max 100 μM
Procedure, shortened: (§1)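 Read-out is maximum change in Fluo-3 fluorescence (FLIPR, 488 nm excitation) over 3 min at room temperature after agonist addition; concentration-response curves were fitted with the Hill equation. Cells were COS-7 transiently expressing the GPCR plus chimeric G protein(s).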

h 5HT1D = h 5HT1D (Homo sapiens, UniProt P28221); details: h 5HT1D + chimera in COS-7; agonist 5HT, max 100 μM
Procedure, shortened: as §1

h D5 = h D5 (Homo sapiens, UniProt P21918); details: h D5 + chimera in COS-7; agonist DA, max 100 μM
Procedure, shortened: as §1

h GALR1 = molecular target: T1, h GALR1 (Homo sapiens, UniProt P47211); details: h GALR1 + chimera in COS-7; agonist GAL, max 10 μM
T1 construct: expressed in transfected cells; host or cells: COS-7
T1 sequence (P47211 1-349): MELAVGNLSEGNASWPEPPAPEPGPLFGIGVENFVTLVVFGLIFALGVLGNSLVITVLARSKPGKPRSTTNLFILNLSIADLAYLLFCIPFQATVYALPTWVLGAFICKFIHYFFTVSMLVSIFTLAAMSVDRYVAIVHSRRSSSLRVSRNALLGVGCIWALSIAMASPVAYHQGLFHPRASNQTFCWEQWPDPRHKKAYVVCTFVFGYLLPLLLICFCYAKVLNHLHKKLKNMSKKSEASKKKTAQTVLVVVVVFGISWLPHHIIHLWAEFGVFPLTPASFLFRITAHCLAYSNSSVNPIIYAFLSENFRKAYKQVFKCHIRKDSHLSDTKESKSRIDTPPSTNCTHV
Procedure, shortened: as §1

h kappa = molecular target: T2, h kappa (Homo sapiens, UniProt P41145); details: h kappa + chimera in COS-7; agonist U-69593, max 100 μM
T2 construct: expressed in transfected cells; host or cells: COS-7
Procedure, shortened: as §1

h α2A adr = molecular target: T3, h α2A adr (Homo sapiens, UniProt P08913); details: h α2A adr + chimera in COS-7; agonist NE, max 100 μM
T3 construct: expressed in transfected cells; host or cells: COS-7
T3 sequence (P08913 1-465): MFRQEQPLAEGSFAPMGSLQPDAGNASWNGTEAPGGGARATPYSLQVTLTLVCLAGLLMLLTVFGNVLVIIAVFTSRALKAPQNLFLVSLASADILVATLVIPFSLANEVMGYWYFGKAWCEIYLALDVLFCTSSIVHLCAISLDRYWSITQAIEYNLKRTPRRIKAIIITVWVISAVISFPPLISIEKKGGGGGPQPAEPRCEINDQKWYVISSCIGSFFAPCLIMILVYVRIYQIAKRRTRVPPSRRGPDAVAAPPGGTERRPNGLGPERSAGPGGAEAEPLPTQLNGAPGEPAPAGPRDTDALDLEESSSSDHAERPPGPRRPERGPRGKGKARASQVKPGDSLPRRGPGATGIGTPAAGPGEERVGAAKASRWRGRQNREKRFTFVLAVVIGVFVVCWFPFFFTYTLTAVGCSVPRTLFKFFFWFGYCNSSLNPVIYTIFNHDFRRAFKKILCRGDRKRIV
Procedure, shortened: as §1

h α2C adr = molecular target: T4, h α2C adr (Homo sapiens, UniProt P18825); details: h α2C adr + chimera in COS-7; agonist NE, max 100 μM
T4 construct: expressed in transfected cells; host or cells: COS-7
T4 sequence (P18825 1-462): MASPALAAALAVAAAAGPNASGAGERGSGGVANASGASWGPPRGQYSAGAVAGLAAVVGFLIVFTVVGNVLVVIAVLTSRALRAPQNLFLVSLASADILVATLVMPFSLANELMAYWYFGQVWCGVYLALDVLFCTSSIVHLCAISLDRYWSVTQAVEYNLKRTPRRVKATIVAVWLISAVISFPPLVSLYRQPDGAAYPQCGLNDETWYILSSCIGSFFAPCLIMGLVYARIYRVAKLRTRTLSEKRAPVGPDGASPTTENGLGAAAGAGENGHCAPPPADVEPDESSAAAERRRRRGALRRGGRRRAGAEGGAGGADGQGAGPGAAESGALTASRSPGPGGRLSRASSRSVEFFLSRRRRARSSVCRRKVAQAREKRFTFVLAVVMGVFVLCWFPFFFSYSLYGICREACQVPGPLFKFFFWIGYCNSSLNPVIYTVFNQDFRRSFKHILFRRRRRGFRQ
Procedure, shortened: as §1

T2 sequence (P41145 whole entry): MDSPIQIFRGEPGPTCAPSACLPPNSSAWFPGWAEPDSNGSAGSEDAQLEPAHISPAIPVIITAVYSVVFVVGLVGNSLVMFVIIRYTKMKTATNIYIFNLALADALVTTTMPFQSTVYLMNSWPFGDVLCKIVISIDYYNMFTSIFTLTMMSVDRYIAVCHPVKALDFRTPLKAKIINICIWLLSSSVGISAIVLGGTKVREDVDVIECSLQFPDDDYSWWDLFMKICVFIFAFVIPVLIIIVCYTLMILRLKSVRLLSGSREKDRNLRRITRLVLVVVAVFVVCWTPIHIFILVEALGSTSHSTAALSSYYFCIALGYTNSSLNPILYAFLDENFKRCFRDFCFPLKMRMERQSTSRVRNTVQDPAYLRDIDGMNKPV
Sequence of h D5 (P21918 whole entry): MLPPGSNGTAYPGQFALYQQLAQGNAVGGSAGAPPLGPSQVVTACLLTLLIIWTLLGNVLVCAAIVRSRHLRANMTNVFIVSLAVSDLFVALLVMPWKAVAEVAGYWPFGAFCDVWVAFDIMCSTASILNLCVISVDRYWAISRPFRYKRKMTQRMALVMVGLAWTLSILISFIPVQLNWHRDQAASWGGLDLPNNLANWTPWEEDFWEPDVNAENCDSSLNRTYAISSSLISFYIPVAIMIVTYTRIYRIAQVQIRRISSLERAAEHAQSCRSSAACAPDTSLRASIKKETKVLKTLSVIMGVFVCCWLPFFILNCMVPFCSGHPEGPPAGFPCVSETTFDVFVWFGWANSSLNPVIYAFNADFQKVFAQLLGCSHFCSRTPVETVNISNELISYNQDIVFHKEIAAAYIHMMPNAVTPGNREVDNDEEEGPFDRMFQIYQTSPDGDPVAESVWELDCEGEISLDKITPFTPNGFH
Sequence of h 5HT1B (P28222 whole entry): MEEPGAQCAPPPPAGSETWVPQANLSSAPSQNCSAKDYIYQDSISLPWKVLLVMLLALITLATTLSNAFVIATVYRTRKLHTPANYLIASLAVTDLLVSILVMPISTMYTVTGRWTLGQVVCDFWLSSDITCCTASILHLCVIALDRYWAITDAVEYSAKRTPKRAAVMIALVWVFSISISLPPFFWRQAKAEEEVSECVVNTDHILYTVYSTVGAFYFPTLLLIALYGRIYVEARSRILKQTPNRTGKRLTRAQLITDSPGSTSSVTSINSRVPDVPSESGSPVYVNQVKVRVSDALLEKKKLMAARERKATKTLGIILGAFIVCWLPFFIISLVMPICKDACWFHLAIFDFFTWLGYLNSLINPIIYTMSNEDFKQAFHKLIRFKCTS
Sequence of h 5HT1D (P28221 whole entry): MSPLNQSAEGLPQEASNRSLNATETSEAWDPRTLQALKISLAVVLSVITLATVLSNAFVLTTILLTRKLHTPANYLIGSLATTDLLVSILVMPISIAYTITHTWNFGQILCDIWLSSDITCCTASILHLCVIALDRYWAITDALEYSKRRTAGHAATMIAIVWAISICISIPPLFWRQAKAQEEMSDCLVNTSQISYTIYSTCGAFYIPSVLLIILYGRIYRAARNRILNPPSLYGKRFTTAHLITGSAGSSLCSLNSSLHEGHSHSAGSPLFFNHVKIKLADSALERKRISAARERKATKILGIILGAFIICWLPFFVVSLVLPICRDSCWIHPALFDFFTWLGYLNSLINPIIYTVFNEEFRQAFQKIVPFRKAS

B1: cGαq/z5: chimeric Gα subunit: C-terminal final 5 amino acids of C. elegans Gαq replaced with those of hGαz (SEQ ID NO: 1) (protein)
chain: MACCLSEEAREQKRINQEIEKQLQRDKRNARRELKLLLLGTGESGKSTFIKQMRIIHGQGYSEEDKRAHIRLVYQNVFMAIQSMIRAMDTLDIKFGNESEELQEKAAVVREVDFESVTSFEEPYVSYIKELWEDSGIQECYDRRREYQLTDSAKYYLSDLRRLAVPDYLPTEQDILRVRVPTTGIIEYPFDLEQIIFRMVDVGGQRSERRKWIHCFENVTSIMFLVALSEYDQVLVECDNENRMEESKALFRTIITYPWFTNSSVILFLNKKDLLEEKILYSHLADYFPEYDGPPRDPIAAREFILKMFVDLNPDADKIIYSHFTCATDTENIRFVFAAVKDTILQHNLKYIGLC
modifications: C. elegans
MAXIMAL SIGNAL (FLUORESCENCE UNITS) (h 5HT1B): 929 fluorescence units
MAXIMAL SIGNAL (FLUORESCENCE UNITS) (h 5HT1D): 414 fluorescence units
MAXIMAL SIGNAL (FLUORESCENCE UNITS) (h D5): 657 fluorescence units
MAXIMAL SIGNAL (FLUORESCENCE UNITS) (h GALR1): 7648 fluorescence units
MAXIMAL SIGNAL (FLUORESCENCE UNITS) (h kappa): 5975 fluorescence units
MAXIMAL SIGNAL (FLUORESCENCE UNITS) (h α2A adr): 7575 fluorescence units
MAXIMAL SIGNAL (FLUORESCENCE UNITS) (h α2C adr): 4143 fluorescence units

B2: cGαq/z9: C. elegans Gαq with Gαz portion of the C-terminal tail extended to 9 amino acids (SEQ ID NO: 2) (protein)
chain: MACCLSEEAREQKRINQEIEKQLQRDKRNARRELKLLLLGTGESGKSTFIKQMRIIHGQGYSEEDKRAHIRLVYQNVFMAIQSMIRAMDTLDIKFGNESEELQEKAAVVREVDFESVTSFEEPYVSYIKELWEDSGIQECYDRRREYQLTDSAKYYLSDLRRLAVPDYLPTEQDILRVRVPTTGIIEYPFDLEQIIFRMVDVGGQRSERRKWIHCFENVTSIMFLVALSEYDQVLVECDNENRMEESKALFRTIITYPWFTNSSVILFLNKKDLLEEKILYSHLADYFPEYDGPPRDPIAAREFILKMFVDLNPDADKIIYSHFTCATDTENIRFVFAAVKDTILQNNLKYIGLC
modifications: C. elegans
MAXIMAL SIGNAL (FLUORESCENCE UNITS) (h 5HT1B): 1217 fluorescence units
MAXIMAL SIGNAL (FLUORESCENCE UNITS) (h 5HT1D): 504 fluorescence units
MAXIMAL SIGNAL (FLUORESCENCE UNITS) (h D5): 797 fluorescence units
MAXIMAL SIGNAL (FLUORESCENCE UNITS) (h GALR1): 8489 fluorescence units
MAXIMAL SIGNAL (FLUORESCENCE UNITS) (h kappa): 3472 fluorescence units
MAXIMAL SIGNAL (FLUORESCENCE UNITS) (h α2A adr): 3040 fluorescence units
MAXIMAL SIGNAL (FLUORESCENCE UNITS) (h α2C adr): 3874 fluorescence units
